Target: actin (UniProt P68135)
Test: ITC; Tmod or Lmod construct in the syringe titrated into LatB-actin in the cell (LatB:actin 1.2:1); 20 mM HEPES pH 7.5, 100 mM NaCl, 0.2 mM ATP, 1 mM DTT; temperature and concentrations listed in the figures

Sequence of Tmod1_(ABS1) (P28289 whole entry, the tested form may be a part): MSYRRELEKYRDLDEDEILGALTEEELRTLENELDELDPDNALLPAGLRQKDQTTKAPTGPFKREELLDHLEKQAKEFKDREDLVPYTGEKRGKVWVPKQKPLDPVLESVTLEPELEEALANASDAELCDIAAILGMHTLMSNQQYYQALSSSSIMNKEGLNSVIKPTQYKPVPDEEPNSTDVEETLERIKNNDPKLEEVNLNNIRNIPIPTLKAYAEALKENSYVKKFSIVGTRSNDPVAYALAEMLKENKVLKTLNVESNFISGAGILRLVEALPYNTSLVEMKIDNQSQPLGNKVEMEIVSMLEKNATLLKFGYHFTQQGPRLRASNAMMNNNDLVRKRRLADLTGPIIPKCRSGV

Tmod1_(ABS1) (from UniProt P28289-1 1-359) (domain or fragment)
stoichiometry N: 1

From PMC4571291
